As usually defined, the Ki is a measure of affinity in units of concentration, obtained from inhibition or displacement. For orientation: Kd means the concentration at which binding is half-saturated. A low value points to tighter binding.

The target of test [1] is T1, recombinant FAK FAT protein (fluorescence polarisation assay) (human).
T1 construct: focal adhesion kinase (FAK), focal adhesion targeting (FAT) domain
Nature of the test: fluorescence polarisation; competition: FAT 25 µM, TAMRA-LD2 L10D probe 0.1 µM, peptide titrated from 1.25 mM, 3 h; 20 mM Tris-Cl pH 8.0, 200 mM NaCl, 0.05% β-mercaptoethanol, 0.1% Triton-X 100, 5% glycerol; Ki calculated from IC50. The note with it: both partners purified.

The target in test [2] is T2, biotinylated AviTag FAK FAT protein (human, biotin).
T2 construct: focal adhesion kinase (FAK), focal adhesion targeting (FAT) domain; captured on a streptavidin biosensor; also called focal adhesion targeting (FAT) domain
Nature of the test: SPR; biotinylated AviTag FAT immobilised on a streptavidin (SADH) biosensor, ForteBio Pioneer FE, OneStep gradient injection at 150 µl/min; 100 mM Tris-Cl pH 8.0, 200 mM NaCl, 0.05% Tween-20; peptides 200 µM to 97 nM; KD from kinetic data, one-site model. The note with it: both partners purified. A general note: In SPR one partner is held on a chip, and binding of the other changes the refractive index at the surface.

Bridge positions count the residues as written; N and C are the ends. Square brackets hold non-standard residues; d marks the D form. R8 = C=CCCCCCC[C@@](C)(N)C(=O)O; R5 = C=CCCC[C@@](C)(N)C(=O)O; S5 = C=CCCC[C@](C)(N)C(=O)O A value given as a limit tells only on which side of the number the result lay.

With Ac-NL[R8]ALDRLL[S5]ELN-NH2 (staple 3-10) [stapled peptide 2009], the Ki in test [1] was 26.7 µM. This molecule showed a dissociation constant Kd in test [2] of 3.4 µM. As to Ac-NLSELDR[S5]LLE[S5]N-NH2 (staple 8-12) [stapled peptide 2015], the Ki in test [1] was 114 µM. Also, the Kd in test [2] stood at 30.6 µM.

Consider Ac-NL[R8]ELDRLW[S5]ELN-NH2 (staple 3-10) [stapled peptide 2007], for which the Ki in test [1] is 190 µM. This molecule gave a Kd in test [2] of 60.6 µM. Regarding Ac-NL[R8]ALDALL[S5]ELN-NH2 (staple 3-10) [stapled peptide 2010], the Ki in test [1] is 68.5 µM. Also, the equilibrium dissociation constant (Kd) in test [2] is 12.6 µM. The matching figures for Ac-NLS[R8]LDRLLL[S5]LN-NH2 (staple 4-11) [stapled peptide 1905]: more than 1250 µM and 146 µM. The matching figures for Ac-DL[R8]ELDRLL[S5]ELD-NH2 (staple 3-10) [stapled peptide 1913]: 21.8 µM and 13.7 µM. Consider Ac-N[R8]SELDRL[S5]LELN-NH2 (staple 2-9) [stapled peptide 2017], for which the Ki in test [1] is 80.6 µM. Further, the Kd in test [2] came out at 27.9 µM. In the case of Ac-NLSE[S5]DRL[S5]LELN-NH2 (staple 5-9) [stapled peptide 1919], the Ki in test [1] is 38.6 µM. In test [2], this molecule had a Kd of 80.6 µM.

As to Ac-NLSELDRL[R5]LE[S5]N-NH2 (staple 9-12) [stapled peptide 1921], the Ki in test [1] is 492 µM. In test [2], this molecule came in with a Kd of more than 200 µM.

For the molecule Ac-NL[R8]QLDRLL[S5]QLN-NH2 (staple 3-10) [stapled peptide 1910], the Ki in test [1] is 46.8 µM. In addition, the Kd in test [2] was 22.6 µM.

B1: stapled peptide 1920 (lengthened 1907) (peptide)
chain: Ac-SLGSNL[R8]ELDRLL[S5]ELNAVQH-NH2
modifications: staple 7-14
SMILES: CC(=O)N[C@@H](CO)C(=O)N[C@@H](CC(C)C)C(=O)NCC(=O)N[C@@H](CO)C(=O)N[C@@H](CC(N)=O)C(=O)N[C@@H](CC(C)C)C(=O)N[C@]1(C)CCCCCCC=CCCC[C@@](C)(C(=O)N[C@@H](CCC(=O)O)C(=O)N[C@@H](CC(C)C)C(=O)N[C@@H](CC(N)=O)C(=O)N[C@@H](C)C(=O)N[C@H](C(=O)N[C@@H](CCC(N)=O)C(=O)N[C@@H](Cc2c[nH]cn2)C(N)=O)C(C)C)NC(=O)[C@H](CC(C)C)NC(=O)[C@H](CC(C)C)NC(=O)[C@H](CCCNC(=N)N)NC(=O)[C@H](CC(=O)O)NC(=O)[C@H](CC(C)C)NC(=O)[C@H](CCC(=O)O)NC1=O
For the molecule B1, the Ki in test [1] was 25 µM.

As to Ac-NLSE[R8]DRLLLE[S5]N-NH2 (staple 5-12) [stapled peptide 1914], the Ki in test [1] was more than 1250 µM. Besides, in test [2], the Kd amounted to 120 µM. The like results for Ac-[R8]ELDRLL[S5]-NH2 (staple 1-8) [truncated stapled peptide 2011] were, in that order, more than 333 µM and more than 200 µM.

With Ac-NL[R8]EWDRLL[S5]EWN-NH2 (staple 3-10) [stapled peptide 1933], the Ki in test [1] was 281 µM. The molecule further showed a Kd in test [2] of 155 µM.

The values above are taken from article PMC11871066, “Structure-based discovery of hydrocarbon-stapled paxillin peptides that block FAK scaffolding in cancer” (Nature Communications, 2025).
